This series has as its target T1, AtTGA2 (6xHis-HRV3C-AtTGA2-HiBiT, plasmid pEPQDKN0742) (UniProt P43273 1-330).
T1 sequence: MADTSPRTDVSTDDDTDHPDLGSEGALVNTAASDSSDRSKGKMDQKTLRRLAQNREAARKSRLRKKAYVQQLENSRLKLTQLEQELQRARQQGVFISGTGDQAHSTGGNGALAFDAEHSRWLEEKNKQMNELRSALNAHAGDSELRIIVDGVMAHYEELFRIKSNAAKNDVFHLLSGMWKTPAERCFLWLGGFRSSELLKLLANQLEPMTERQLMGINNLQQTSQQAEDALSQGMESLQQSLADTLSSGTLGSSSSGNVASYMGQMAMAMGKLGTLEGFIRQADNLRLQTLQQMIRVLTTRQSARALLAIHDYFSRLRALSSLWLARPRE
The experiment in a line: EMSA; 500 ng poly(dI-dC); 20 mM Tris-HCl pH 8.0, 50 mM KCl, 2 mM DTT, 1 mM EDTA, 500 ng poly(dI-dC), 5% glycerol, 0.05% IGEPAL CA630, 0.1 mg/ml BSA; about 500 pmol protein, 5.5 pmol probe; room temperature 1 h; 6% TBE gel. The conditions noted are these: protein: ivt; tags: N-terminal NET-6xHis-HRV3C (as described for plasmid); C-terminal HiBiT; label: Alexa-488 at 5' end of the complementary strand (Klenow extension of labelled primer S3); blunt.

B1: TGA TFBS probe (dsDNA)
DNA 1: GACCCCTATTGCAGCTATTTCACCTGACGTAAGGGATGACGCACAGGCCATCACGCAGTA
DNA 2: TACTGCGTGATGGCCTGTGCGTCATCCCTTACGTCAGGTGAAATAGCTGCAATAGGGGTC
Turning to B1, the binding result was “binds”.

B2: Random control probe (dsDNA)
DNA 1: GACCCCTATTGCAGCTATTTCACACATACCAACGCTTAGCGCAATGGCCATCACGCAGTA
DNA 2: TACTGCGTGATGGCCATTGCGCTAAGCGTTGGTATGTGTGAAATAGCTGCAATAGGGGTC
Regarding B2, the binding result is “no binding”.

The values are drawn from publication PMC8529701, “Biofoundry-assisted expression and characterization of plant proteins”.
